In patent publication US20050058643A1 (APITOPE TECHNOLOGY BRISTOL, published 2005):

Molecular target: T1, HLA:DR2 (DRB1*1501) MHC Class II molecule (human)
T1 construct: whole, on cells
Experiment: conclusion drawn from presentation and tolerance experiments (fixed HLA-DR2+ APC; HLA:DR2 transgenic mice); no direct binding assay

B1: MBP peptide 140-154 (peptide)
peptide: GFKGVDAQGTLSKIF
notes: also called APITOPE-MS-6
  binding result: binds
